Assay results taken from patent publication US20160311870A1 (SWEDISH ORPHAN BIOVITRUM AB PUBL, published 2016).

Molecular target: T1, human complement component 5 (C5) (human, UniProt P01031 19-673; P01031 678-1676)
T1 construct: Bought human C5 (Quidel Cat #403 / A403); also called human C5; hC5
Experiment: BLI (ForteBio), compound captured on HSA sensor, human C5 in solution
Method: Human serum albumin was immobilized to Amine Reactive 2nd generation (AR2G) Dip and Read Biosensors (Pall Life sciences (ForteBio) Cat #18-5092) by amine coupling. […] Regeneration conditions for the sensors were 10 mM Glycine, pH 2 (three pulses with 30 seconds and running buffer for 60 seconds). Each spectrogram was reference subtracted against an analogous construct containing an albumin binding domain (SEQ ID NO: 250) but without the C5 binding capacity. The data were analyzed according to Langmuir 1:1 model using ForteBio Analysis 7.1 (Pall Life sciences (ForteBio) kinetics software).

B1: PSI0383 (designed binder)
chain: AEAKYAKEVLEAWDEIDRLPNLTIEQWLAFINKLDRQPEQSSELLSEAKKLSESQAPKVEGSLAEAKEAANAELDSYGVSDFYKRLIDKAKTVEGVEALKDAILAALP
notes: N52S, D53E, D60E and loop changes D36R, D37Q, S39E against PSI0242
  Rel. KD (KD relative to PSI0242): 2.1
